Reference: US20210269542A1 (POTENZA THERAPEUTICS, published 2021)
Read-outs that look alike come from different tables or passages of the source.

T1: human GITR expressed on cells (human, UniProt Q9Y5U5 26-241)
T1 sequence: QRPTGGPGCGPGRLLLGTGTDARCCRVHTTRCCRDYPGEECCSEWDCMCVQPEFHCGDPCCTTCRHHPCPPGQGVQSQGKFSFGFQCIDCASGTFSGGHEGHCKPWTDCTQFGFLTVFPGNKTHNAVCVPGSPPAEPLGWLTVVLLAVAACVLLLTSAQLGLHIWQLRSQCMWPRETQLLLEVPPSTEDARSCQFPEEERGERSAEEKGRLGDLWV

T2: cynomolgus monkey GITR expressed on HT1080 cells (cynomolgus monkey)
T2 chain: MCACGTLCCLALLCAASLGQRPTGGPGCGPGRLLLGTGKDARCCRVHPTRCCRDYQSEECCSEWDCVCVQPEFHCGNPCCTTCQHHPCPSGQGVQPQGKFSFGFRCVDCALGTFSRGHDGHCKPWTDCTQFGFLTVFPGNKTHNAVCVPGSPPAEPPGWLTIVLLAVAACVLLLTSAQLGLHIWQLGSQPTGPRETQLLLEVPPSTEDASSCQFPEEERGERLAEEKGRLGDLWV

T3: human GITR-Fc (human, UniProt Q9Y5U5 26-162)
T3 construct: also called recombinant hGITR; wild type human GITR-Fc
T3 sequence: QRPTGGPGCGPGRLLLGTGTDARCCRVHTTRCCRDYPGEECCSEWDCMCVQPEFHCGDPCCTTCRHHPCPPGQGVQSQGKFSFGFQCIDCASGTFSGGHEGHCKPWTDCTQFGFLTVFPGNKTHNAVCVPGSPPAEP

T4: cyno GITR-Fc (cynomolgus monkey)
T4 construct: also called cGITR; cynomolgus GITR
T4 chain: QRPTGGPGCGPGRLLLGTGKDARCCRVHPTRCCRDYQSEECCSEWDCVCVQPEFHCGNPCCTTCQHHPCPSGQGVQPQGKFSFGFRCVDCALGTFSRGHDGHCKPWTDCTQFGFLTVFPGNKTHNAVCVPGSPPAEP


Experiments:
[1] = biological target: T1, human GITR expressed on cells; test: cell-based or functional assay
[2] = biological target: T1, human GITR expressed on cells; test: cell-based or functional assay; remark: listed apart in the source
[3] = biological target: T2, cynomolgus monkey GITR expressed on …; test: cell-based or functional assay
[4] = biological target: T1, human GITR expressed on cells; test: cell-based or functional assay; remark: listed apart in the source
[5] = biological target: T2, cynomolgus monkey GITR expressed on …; test: cell-based or functional assay
[6] = biological target: T1, human GITR expressed on cells; test: cell-based or functional assay; remark: listed apart in the source
[7] = biological target: T2, cynomolgus monkey GITR expressed on …; test: cell-based or functional assay
[8] = biological target: T1, human GITR expressed on cells; test: cell-based or functional assay; remark: listed apart in the source
human GITR-Fc = biological target: T3, human GITR-Fc; test: BLI Octet RED384, ABP on AHQ sensor, 100 nM antigen, single concentration;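 further: association and dissociation each tracked over 180 s, with dissociation run in antigen-free buffer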
Procedure: (§1) The sensors were quenched by dipping into an unrelated human IgG1 antibody to prevent non-specific binding of GITR-Fc antigens to the sensor. The sensors were equilibrated in assay buffer for 30 minutes. Baseline was established by dipping the sensors into assay buffer for 60 seconds. Association was monitored for 180 seconds in 100 nM of recombinant antigens, and dissociation was followed for 180 seconds in buffer alone. KD was determined using the kinetic function of the FORTEBIO® Analysis Software using a 1:1 binding model.

[9] = biological target: T1, human GITR expressed on cells; test: cell-based or functional assay; remark: listed apart in the source
[10] = biological target: T2, cynomolgus monkey GITR expressed on …; test: cell-based or functional assay
cyno GITR-Fc = biological target: T4, cyno GITR-Fc; test: BLI Octet RED384, ABP on AHQ sensor, 100 nM antigen, single concentration;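 further: association and dissociation each tracked over 180 s, with dissociation run in antigen-free buffer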
Procedure: as §1

| Binder | Average EC50 in human HT1080 (IL-8 induction) [1] | Kd (human GITR-Fc) | EC50 in human HT1080 (IL-8 induction), n = 2 [9] | EC50 in cynomolgus HT1080 (IL-8 induction), n = 1 [10] | Kd (cyno GITR-Fc) | also measured |
| --- | --- | --- | --- | --- | --- | --- |
| trimeric human GITR ligand (ligand, UniProt Q9UNG2 50-177, looked up) QLETAKEPCMAKFGPLPSKWQMASSEPPCVNKVSDWKLEILQNGLYLIYGQVAPNANYNDVAPFEVRLYKNKDMIQTLTNKSKIQNVGGTYELHVGDTIDLIFNSEHQVLKNNTYWGIILLANPQFIS | 0.37 nM | – | – | – | – | Average EC50 in human HT1080 (IL-8 induction) [2]: 0.43 nM; Average EC50 in cynomolgus HT1080 (IL-8 induction) [3]: 0.17 nM; EC50 in human HT1080 (IL-8 induction) [4]: 0.4 nM; EC50 in cynomolgus HT1080 (IL-8 induction) [5]: 0.2 nM; Average EC50 in human HT1080 (IL-8 induction) [6]: 0.12 nM; Average EC50 in cynomolgus HT1080 (IL-8 induction) [7]: 0.076 nM; EC50, Jurkat cells expressing human GITR (run with ABP 1) [8]: 0.9 nM; EC50, Jurkat cells expressing human GITR (run with ABP 2) [8]: 0.91 nM; EC50, Jurkat cells expressing human GITR (run with ABP 3) [8]: 0.85 nM; EC50, Jurkat cells expressing human GITR (run with ABP 4) [8]: 1.13 nM; EC50, Jurkat cells expressing human GITR (run with ABP 5) [8]: 1.01 nM; EC50, Jurkat cells expressing human GITR (run with ABP 6) [8]: 0.9 nM; EC50, Jurkat cells expressing human GITR (run with ABP 7) [8]: 0.81 nM; EC50, Jurkat cells expressing human GITR (run with ABP 8) [8]: 0.89 nM |
| ABP44 (antibody, human IgG1, kappa, N297A, V domains shown, IgG1 N297A, H1H2-optimized, non-TM) VH: QVQLVQSGAEVKKPGSSVKVSCKASGGTFSSYYISWVRQAPGQGLEWMGGIIPVPGTANYAQKFQGRVTITADESTSTAYMELSSLRSEDTAVYYCARAGGGYARGDHYYGMDVWGQGTTVTVSS VL: not shown | – | 46.5 nM | 4.2 nM | 28 nM | – | – |
| ABP49 (antibody, human IgG1, kappa, N297A, V domains shown, IgG1 N297A, H1H2-optimized, non-TM) VH: QVQLQESGPGLVKPSQTLSLTCTVSGGSISSGGAVWSWIRQHPGKGLEWIGGIAYSGSTYYNPSLKSRVTISVDTSKNQFSLKLSSVTAADTAVYYCARDSVRGYGDYGGHHAFDIWGQGTMVTVSS VL: not shown | – | 63.5 nM | 2.7 nM | 65.8 nM | – | binding result (cyno GITR-Fc): no binding (tested: 100 nM) |
| ABP42 (antibody, human IgG1, kappa, N297A, V domains shown, IgG1 N297A, non-optimized, non-TM) VH: QLQLQESGPGLVKPSETLSLTCTVSGGSISSSSYAWGWIRQPPGKGLEWIGSIYYSGSTYYNPSLKSRVTISVDTSKNQFSLKLSSVTAADTAVYYCARDSGRGYGDYGGHHAFDIWGQGTMVTVSS VL: not shown | – | 11.5 nM | 17.8 nM | – | – | binding result (cyno GITR-Fc): no binding (tested: 100 nM) |
| ABP20 (antibody, human IgG4 S228P, kappa, TM format, N-terminal Fab: VH + IgG1 CH1 + GGGGS + VH + IgG4 S228P) heavy: not shown light: DIQLTQSPSSVSASVGDRVTITCRASQGISSWLAWYQQKPGKAPKLLIYGASSLQSGVPSRFSGSGSGTDFTLTISSLQPEDFATYYCQQASLFPPTFGGGTKVEIKRTVAAPSVFIFPPSDEQLKSGTASVVCLLNNFYPREAKVQWKVDNALQSGNSQESVTEQDSKDSTYSLSSTLTLSKADYEKHKVYACEVTHQGLSSPVTKSFNRGEC | 0.63 nM | 4.4 nM | – | – | 5.2 nM | – |
| ABP26 (antibody, human IgG4 S228P, kappa) heavy: not shown light: DIQLTQSPSSVSASVGDRVTITCRASQGISSWLAWYQQKPGKAPKLLIYGASSLQSGVPSRFSGSGSGTDFTLTISSLQPEDFATYYCQQASLFPPTFGGGTKVEIKRTVAAPSVFIFPPSDEQLKSGTASVVCLLNNFYPREAKVQWKVDNALQSGNSQESVTEQDSKDSTYSLSSTLTLSKADYEKHKVYACEVTHQGLSSPVTKSFNRGEC | 0.63 nM | 5.1 nM | – | – | 5.1 nM | – |
| ABP45 (antibody, human IgG1, kappa, N297A, V domains shown, IgG1 N297A, H1H2-optimized, non-TM) VH: QVQLVQSGAEVKKPGSSVKVSCKASGGTFSRGAISWVRQAPGQGLEWMGGIIPIEGTAYYAQKFQGRVTITADESTSTAYMELSSLRSEDTAVYYCARQSDYGLPRGMDVWGQGTTVTVSS VL: DIQLTQSPSSVSASVGDRVTITCRASQGISSWLAWYQQKPGKAPKLLIYGASSLQSGVPSRFSGSGSGTDFTLTISSLQPEDFATYYCQQASLFPPTFGGGTKVEIKR | – | 112 nM | 10.5 nM | 15.1 nM | – | – |
| ABP46 (antibody, human IgG1, kappa, N297A, V domains shown, IgG1 N297A, H1H2-optimized, non-TM) VH: QVQLVQSGAEVKKPGSSVKVSCKASGGTFSSYAISWVRQAPGQGLEWMGGIIPISGFANYAQKFQGRVTITADESTSTAYMELSSLRSEDTAVYYCAREGGHYYSGWPYWGQGTLVTVSS VL: EIVLTQSPATLSLSPGERATLSCRASQSVSSYLAWYQQKPGQAPRLLIYDASNRATGIPARFSGSGSGTDFTLTISSLEPEDFAVYYCQQRLVFPPTFGGGTKVEIKR | – | 59.8 nM | 1.2 nM | 6.9 nM | 111 nM | – |
| ABP47 (antibody, human IgG1, kappa, N297A, V domains shown, IgG1 N297A, H1H2-optimized, non-TM) VH: QVQLVQSGAEVKKPGSSVKVSCKASGGTFVRYAISWVRQAPGQGLEWMGGIIPIFGEAQYAQKFQGRVTITADESTSTAYMELSSLRSEDTAVYYCAREGYYYGALPYWGQGTLVTVSS VL: EIVLTQSPATLSLSPGERATLSCRASQSVSSYLAWYQQKPGQAPRLLIYDASNRATGIPARFSGSGSGTDFTLTISSLEPEDFAVYYCQQHSVFPPTFGGGTKVEIKR | – | 44.3 nM | 4.1 nM | 11.8 nM | 88.1 nM | – |
